Test results as given in patent US20210388087A1 (Chugai, published 2021).
Positions count from the first letter of the chain named.

B1: CE115HA000/GLS3000 N53Y (antibody, IgG1, name in Kabat numbering, V domains shown)
VH: QVQLVESGGGVVQPGRSLRLSCAASGFTFSNAWMHWVRQAPGKGLEWVAQIKAKSNNYATYYAESVKGRFTISRDDSKNSLYLQMNSLKTEDTAVYYCRYVHYGAYYGVDAWGQGTTVTVSS
VL: DIVMTQSPLSLPVTPGEPASISCRSSQSLVHSNRNTYLHWYQQKPGQAPRLLIYKVSYRFSGVPDRFSGSGSGTDFTLKISRVEAEDVGVYYCGQGTQVPYTFGQGTKLEIK
notes: one-arm IgG1
B2: CE115HA000/GLS3000 Q93P (antibody, IgG1, name in Kabat numbering, V domains shown)
VH: B1 VH
VL: B1 VL with Y58N, Q98P
notes: one-arm IgG1
B3: CE115HA000/GLS3000 Q27E (antibody, IgG1, name in Kabat numbering, V domains shown)
VH: B1 VH
VL: B1 VL with Q27E, Y58N
notes: one-arm IgG1
B4: CE115HA000/GLS3000 P95E (antibody, IgG1, name in Kabat numbering, V domains shown)
VH: B1 VH
VL: B1 VL with Y58N, P100E
notes: one-arm IgG1
B5: CE115HA000/GLS3000 P95A (antibody, IgG1, name in Kabat numbering, V domains shown)
VH: B1 VH
VL: B1 VL with Y58N, P100A
notes: one-arm IgG1
B6: CE115HA000/GLS3000 R24T (antibody, IgG1, name in Kabat numbering, V domains shown)
VH: B1 VH
VL: B1 VL with R24T, Y58N
notes: one-arm IgG1
B7: CE115HA000/GLS3000 R29S (antibody, IgG1, name in Kabat numbering, V domains shown)
VH: B1 VH
VL: B1 VL with R34S, Y58N
notes: one-arm IgG1
B8: CE115HA000/GLS3000 Q90E (antibody, IgG1, name in Kabat numbering, V domains shown)
VH: B1 VH
VL: B1 VL with Y58N, Q95E
notes: one-arm IgG1
B9: CE115HA000/GLS3000 R29G (antibody, IgG1, name in Kabat numbering, V domains shown)
VH: B1 VH
VL: B1 VL with R34G, Y58N
notes: one-arm IgG1
B10: CE115HA000/GLS3000 R24A (antibody, IgG1, name in Kabat numbering, V domains shown)
VH: B1 VH
VL: B1 VL with R24A, Y58N
notes: one-arm IgG1
B11: CE115HA000/GLS3000 R24Q (antibody, IgG1, name in Kabat numbering, V domains shown)
VH: B1 VH
VL: B1 VL with R24Q, Y58N
notes: one-arm IgG1
B12: CE115HA000/GLS3000 Q27D (antibody, IgG1, name in Kabat numbering, V domains shown)
VH: B1 VH
VL: B1 VL with Q27D, Y58N
notes: one-arm IgG1
B13: CE115HA000/GLS3000 P95L (antibody, IgG1, name in Kabat numbering, V domains shown)
VH: B1 VH
VL: B1 VL with Y58N, P100L
notes: one-arm IgG1
B14: CE115HA000/GLS3000 R29D (antibody, IgG1, name in Kabat numbering, V domains shown)
VH: B1 VH
VL: B1 VL with R34D, Y58N
notes: one-arm IgG1
B15: CE115HA000/GLS3000 Q93R (antibody, IgG1, name in Kabat numbering, V domains shown)
VH: B1 VH
VL: B1 VL with Y58N, Q98R
notes: one-arm IgG1
B16: CE115HA000/GLS3000 Q93S (antibody, IgG1, name in Kabat numbering, V domains shown)
VH: B1 VH
VL: B1 VL with Y58N, Q98S
notes: one-arm IgG1
B17: CE115HA000/GLS3000 R24D (antibody, IgG1, name in Kabat numbering, V domains shown)
VH: B1 VH
VL: B1 VL with R24D, Y58N
notes: one-arm IgG1
B18: CE115HA000/GLS3000 R29I (antibody, IgG1, name in Kabat numbering, V domains shown)
VH: B1 VH
VL: B1 VL with R34I, Y58N
notes: one-arm IgG1
B19: CE115HA000/GLS3000 R24G (antibody, IgG1, name in Kabat numbering, V domains shown)
VH: B1 VH
VL: B1 VL with R24G, Y58N
notes: one-arm IgG1
B20: CE115HA000/GLS3000 R29P (antibody, IgG1, name in Kabat numbering, V domains shown)
VH: B1 VH
VL: B1 VL with R34P, Y58N
notes: one-arm IgG1
B21: CE115HA000/GLS3000 R29Y (antibody, IgG1, name in Kabat numbering, V domains shown)
VH: B1 VH
VL: B1 VL with R34Y, Y58N
notes: one-arm IgG1
B22: CE115HA000/GLS3000 Q90P (antibody, IgG1, name in Kabat numbering, V domains shown)
VH: B1 VH
VL: B1 VL with Y58N, Q95P
notes: one-arm IgG1
B23: CE115HA000/GLS3000 Q93Y (antibody, IgG1, name in Kabat numbering, V domains shown)
VH: B1 VH
VL: B1 VL with Y58N, Q98Y
notes: one-arm IgG1
B24: CE115HA000/GLS3000 Q90A (antibody, IgG1, name in Kabat numbering, V domains shown)
VH: B1 VH
VL: B1 VL with Y58N, Q95A
notes: one-arm IgG1
B25: CE115HA000/GLS3000 P95S (antibody, IgG1, name in Kabat numbering, V domains shown)
VH: B1 VH
VL: B1 VL with Y58N, P100S
notes: one-arm IgG1
B26: CE115HA000/GLS3000 P95G (antibody, IgG1, name in Kabat numbering, V domains shown)
VH: B1 VH
VL: B1 VL with Y58N, P100G
notes: one-arm IgG1
B27: CE115HA000/GLS3000 Q27P (antibody, IgG1, name in Kabat numbering, V domains shown)
VH: B1 VH
VL: B1 VL with Q27P, Y58N
notes: one-arm IgG1
B28: CE115HA000/GLS3000 Q93D (antibody, IgG1, name in Kabat numbering, V domains shown)
VH: B1 VH
VL: B1 VL with Y58N, Q98D
notes: one-arm IgG1
B29: CE115HA000/GLS3000 P95D (antibody, IgG1, name in Kabat numbering, V domains shown)
VH: B1 VH
VL: B1 VL with Y58N, P100D
notes: one-arm IgG1
B30: CE115HA000/GLS3000 R29L (antibody, IgG1, name in Kabat numbering, V domains shown)
VH: B1 VH
VL: B1 VL with R34L, Y58N
notes: one-arm IgG1
B31: CE115HA000/GLS3000 Q90D (antibody, IgG1, name in Kabat numbering, V domains shown)
VH: B1 VH
VL: B1 VL with Y58N, Q95D
notes: one-arm IgG1
B32: CE115HA000/GLS3000 R29A (antibody, IgG1, name in Kabat numbering, V domains shown)
VH: B1 VH
VL: B1 VL with R34A, Y58N
notes: one-arm IgG1
B33: CE115HA000/GLS3000 R24P (antibody, IgG1, name in Kabat numbering, V domains shown)
VH: B1 VH
VL: B1 VL with R24P, Y58N
notes: one-arm IgG1
B34: CE115HA000/GLS3000 Q27R (antibody, IgG1, name in Kabat numbering, V domains shown)
VH: B1 VH
VL: B1 VL with Q27R, Y58N
notes: one-arm IgG1
B35: CE115HA000/GLS3000 R24S (antibody, IgG1, name in Kabat numbering, V domains shown)
VH: B1 VH
VL: B1 VL with R24S, Y58N
notes: one-arm IgG1
B36: CE115HA000/GLS3000 R24E (antibody, IgG1, name in Kabat numbering, V domains shown)
VH: B1 VH
VL: B1 VL with R24E, Y58N
notes: one-arm IgG1
B37: CE115HA000/GLS3000 R29V (antibody, IgG1, name in Kabat numbering, V domains shown)
VH: B1 VH
VL: B1 VL with R34V, Y58N
notes: one-arm IgG1
B38: CE115HA000/GLS3000 Q93E (antibody, IgG1, name in Kabat numbering, V domains shown)
VH: B1 VH
VL: B1 VL with Y58N, Q98E
notes: one-arm IgG1
B39: CE115HA000/GLS3000 Q93A (antibody, IgG1, name in Kabat numbering, V domains shown)
VH: B1 VH
VL: B1 VL with Y58N, Q98A
notes: one-arm IgG1
B40: CE115HA000/GLS3000 Q90S (antibody, IgG1, name in Kabat numbering, V domains shown)
VH: B1 VH
VL: B1 VL with Y58N, Q95S
notes: one-arm IgG1
B41: CE115HA000/GLS3000 Q27L (antibody, IgG1, name in Kabat numbering, V domains shown)
VH: B1 VH
VL: B1 VL with Q27L, Y58N
notes: one-arm IgG1
B42: CE115HA000/GLS3000 Q90Y (antibody, IgG1, name in Kabat numbering, V domains shown)
VH: B1 VH
VL: B1 VL with Y58N, Q95Y
notes: one-arm IgG1
B43: CE115HA000/GLS3000 R24Y (antibody, IgG1, name in Kabat numbering, V domains shown)
VH: B1 VH
VL: B1 VL with R24Y, Y58N
notes: one-arm IgG1
B44: CE115HA000/GLS3000 R29T (antibody, IgG1, name in Kabat numbering, V domains shown)
VH: B1 VH
VL: B1 VL with R34T, Y58N
notes: one-arm IgG1

These binders were tested against T1, CD3 epsilon homodimer protein (UniProt P07766 23-126) (assay: SPR, antibody over immobilised CD3e homodimer;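 also: SPR at 25 °C with CD3 epsilon homodimer amine-coupled to a CM4 sensor chip and antibody flowed over as analyte in HBS-EP+ running buffer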).
T1 construct: also called CD3 (CD3 epsilon)
T1 sequence (P07766 23-126): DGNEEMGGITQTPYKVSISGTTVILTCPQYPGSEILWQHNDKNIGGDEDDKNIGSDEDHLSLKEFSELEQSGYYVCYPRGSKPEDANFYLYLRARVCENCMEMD
Procedure: An appropriate amount of CD3 epsilon homodimer protein was immobilized onto Sensor chip CM4 (GE Healthcare Japan Corp.) by the amine coupling method. Then, the antibody having an appropriate concentration was injected thereto as an analyte and allowed to interact with the CD3 epsilon homodimer protein on the sensor chip. Then, the sensor chip was regenerated by the injection of 10 mmol/L glycine-HCl (pH 1.5). The assay was conducted at 25 degrees C., and HBS-EP+(GE Healthcare Japan Corp.) was used as a running buffer. […] Each parameter was calculated using Biacore T200 Evaluation Software (GE Healthcare Japan Corp.).

Binder	KD ratio to GLS3000
B1	0.99
B2	39.5
B3	0.99
B4	1.01
B5	0.87
B6	1.03
B7	1.05
B8	0.91
B9	0.62
B10	1
B11	0.87
B12	0.89
B13	11.7
B14	1.58
B15	0.79
B16	0.75
B17	0.83
B18	1.6
B19	0.92
B20	14
B21	1.08
B22	15.9

Binder	KD ratio to GLS3000
B23	0.76
B24	0.89
B25	1.19
B26	1.94
B27	2.16
B28	0.72
B29	2.37
B30	0.9
B31	11.1
B32	1.15
B33	0.34
B34	1.06
B35	0.97
B36	0.89
B37	2.25
B38	1.05
B39	0.65
B40	0.96
B41	0.86
B42	38.3
B43	0.94
B44	1.02
